According to IntAct's records for PubMed 17070805:

Target: T1, npl4_human NPLOC4 (UniProt Q8TAT6)
T1 sequence: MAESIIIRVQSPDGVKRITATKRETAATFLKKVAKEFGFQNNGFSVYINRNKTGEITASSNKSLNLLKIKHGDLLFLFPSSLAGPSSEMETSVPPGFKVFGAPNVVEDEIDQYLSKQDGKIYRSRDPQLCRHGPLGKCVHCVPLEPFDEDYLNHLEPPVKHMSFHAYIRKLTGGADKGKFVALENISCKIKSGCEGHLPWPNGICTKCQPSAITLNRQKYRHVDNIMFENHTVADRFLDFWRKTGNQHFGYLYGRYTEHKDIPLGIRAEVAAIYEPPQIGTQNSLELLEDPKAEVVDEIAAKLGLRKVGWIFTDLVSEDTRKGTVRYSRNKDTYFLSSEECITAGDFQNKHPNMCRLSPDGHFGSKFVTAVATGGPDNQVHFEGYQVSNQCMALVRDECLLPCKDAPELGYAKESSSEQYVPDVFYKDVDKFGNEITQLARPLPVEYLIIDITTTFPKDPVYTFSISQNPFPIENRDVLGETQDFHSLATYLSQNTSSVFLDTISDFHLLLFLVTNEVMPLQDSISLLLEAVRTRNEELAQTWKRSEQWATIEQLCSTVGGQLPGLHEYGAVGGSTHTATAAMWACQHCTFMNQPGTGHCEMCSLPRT

## Polyubiquitin-C (Homo sapiens) (from UniProt P0CG48) I44A
  effect of a mutation on the interaction: decreasing interaction
